± gives the uncertainty stated by the source.

This data set is described as follows: abundance fitness (aPCA) (normalised: wild type 0, dead -1); higher = more abundant; growth selection in yeast, the domain comes from the species named. The following applies: Homo sapiens.
“Lipoamide acyltransferase component of branched-chain alpha-keto acid dehydrogenase complex, mitochondrial D197S, P11182” yielded an abundance fitness of -0.205 ± 0.041.

Substance “Lipoamide acyltransferase component of branched-chain alpha-keto acid dehydrogenase complex, mitochondrial D197T, P11182” gave an abundance fitness of -0.45 ± 0.06.

“Lipoamide acyltransferase component of branched-chain alpha-keto acid dehydrogenase complex, mitochondrial D197V, P11182” displayed an abundance fitness of -0.728 ± 0.061. Take “Lipoamide acyltransferase component of branched-chain alpha-keto acid dehydrogenase complex, mitochondrial D197W, P11182”: the abundance fitness was -0.387 ± 0.064. Next, “Lipoamide acyltransferase component of branched-chain alpha-keto acid dehydrogenase complex, mitochondrial D204A, P11182”: -1.24 ± 0.064. The result for “Lipoamide acyltransferase component of branched-chain alpha-keto acid dehydrogenase complex, mitochondrial D204C, P11182” reads -1.27 ± 0.098; that for “Lipoamide acyltransferase component of branched-chain alpha-keto acid dehydrogenase complex, mitochondrial D204E, P11182”, -0.771 ± 0.1; that for “Lipoamide acyltransferase component of branched-chain alpha-keto acid dehydrogenase complex, mitochondrial D204G, P11182”, -0.806 ± 0.042.

With “Lipoamide acyltransferase component of branched-chain alpha-keto acid dehydrogenase complex, mitochondrial D204H, P11182”, the abundance fitness was -0.946 ± 0.16. Next, “Lipoamide acyltransferase component of branched-chain alpha-keto acid dehydrogenase complex, mitochondrial D204L, P11182”: -1.26 ± 0.1; “Lipoamide acyltransferase component of branched-chain alpha-keto acid dehydrogenase complex, mitochondrial D204M, P11182”: -1.35 ± 0.11; “Lipoamide acyltransferase component of branched-chain alpha-keto acid dehydrogenase complex, mitochondrial D204N, P11182”: -0.136 ± 0.4.

The substance “Lipoamide acyltransferase component of branched-chain alpha-keto acid dehydrogenase complex, mitochondrial D204P, P11182” came in with an abundance fitness of -0.455 ± 0.06. The result for “Lipoamide acyltransferase component of branched-chain alpha-keto acid dehydrogenase complex, mitochondrial D204Q, P11182” reads -0.932 ± 0.062; that for “Lipoamide acyltransferase component of branched-chain alpha-keto acid dehydrogenase complex, mitochondrial D204R, P11182”, -1.07 ± 0.047. Regarding “Lipoamide acyltransferase component of branched-chain alpha-keto acid dehydrogenase complex, mitochondrial D204S, P11182”, the abundance fitness is -0.83 ± 0.068. Next, “Lipoamide acyltransferase component of branched-chain alpha-keto acid dehydrogenase complex, mitochondrial D204T, P11182”: -0.973 ± 0.064; “Lipoamide acyltransferase component of branched-chain alpha-keto acid dehydrogenase complex, mitochondrial D204V, P11182”: -1.1 ± 0.072; “Lipoamide acyltransferase component of branched-chain alpha-keto acid dehydrogenase complex, mitochondrial E190A, P11182”: -0.093 ± 0.047. Next, “Lipoamide acyltransferase component of branched-chain alpha-keto acid dehydrogenase complex, mitochondrial E190C, P11182”: -0.315 ± 0.12; “Lipoamide acyltransferase component of branched-chain alpha-keto acid dehydrogenase complex, mitochondrial E190D, P11182”: 0.039 ± 0.064; “Lipoamide acyltransferase component of branched-chain alpha-keto acid dehydrogenase complex, mitochondrial E190F, P11182”: -0.448 ± 0.076. In the case of “Lipoamide acyltransferase component of branched-chain alpha-keto acid dehydrogenase complex, mitochondrial E190G, P11182”, the abundance fitness was -0.409 ± 0.038.

In the case of “Lipoamide acyltransferase component of branched-chain alpha-keto acid dehydrogenase complex, mitochondrial E190H, P11182”, the abundance fitness was -0.086 ± 0.072.

The substance “Lipoamide acyltransferase component of branched-chain alpha-keto acid dehydrogenase complex, mitochondrial E190I, P11182” came in with an abundance fitness of -0.609 ± 0.08.

As to “Lipoamide acyltransferase component of branched-chain alpha-keto acid dehydrogenase complex, mitochondrial E190K, P11182”, the abundance fitness was -0.178 ± 0.056. The substance “Lipoamide acyltransferase component of branched-chain alpha-keto acid dehydrogenase complex, mitochondrial E190L, P11182” registered an abundance fitness of -0.186 ± 0.042. For the substance “Lipoamide acyltransferase component of branched-chain alpha-keto acid dehydrogenase complex, mitochondrial E190M, P11182”, the abundance fitness was -0.147 ± 0.049.

On to “Lipoamide acyltransferase component of branched-chain alpha-keto acid dehydrogenase complex, mitochondrial E190N, P11182”, for which the abundance fitness was -0.032 ± 0.047. With “Lipoamide acyltransferase component of branched-chain alpha-keto acid dehydrogenase complex, mitochondrial E190P, P11182”, the abundance fitness is -0.963 ± 0.081. Next, “Lipoamide acyltransferase component of branched-chain alpha-keto acid dehydrogenase complex, mitochondrial E190Q, P11182”: -0.069 ± 0.059; “Lipoamide acyltransferase component of branched-chain alpha-keto acid dehydrogenase complex, mitochondrial E190R, P11182”: -0.199 ± 0.04. Next, “Lipoamide acyltransferase component of branched-chain alpha-keto acid dehydrogenase complex, mitochondrial E190S, P11182”: -0.079 ± 0.046.

The record behind these values is the Human Domainome abundance scans (Beltran et al. 2025).
